Columns and labels:
[1] = molecular target: T1, SNX5 PX domain (UniProt Q9Y5X3 25-172); experiment: ITC; Microcal ITC200, 298 K; 50 mM Hepes pH 7.5, 200 mM NaCl, 0.5 mM TCEP; SNX5/6 PX titrated with NRP1 peptide, 13 injections; single site binding model; mean of three experiments; conditions: both partners purified
T1 construct: PX domain of sorting nexin 5, from a pGEX-4T-2 construct; also called PX domain of SNX5; source: E. coli BL21 (DE3), purified (glutathione Sepharose 4B, thrombin cleavage, Superdex 75 gel filtration)
T1 sequence (looked up): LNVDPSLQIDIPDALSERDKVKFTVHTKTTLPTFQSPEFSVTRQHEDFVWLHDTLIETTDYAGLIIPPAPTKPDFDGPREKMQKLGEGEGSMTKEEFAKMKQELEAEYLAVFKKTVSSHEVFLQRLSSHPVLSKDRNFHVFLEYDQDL

[2] = molecular target: T2, SNX6 PX domain (UniProt Q9UNH7 26-173); experiment: as above; conditions: both partners purified
T2 construct: PX domain of sorting nexin 6, from a pGEX-4T-2 construct; also called PX domain of SNX6; source: E. coli BL21 (DE3), purified (glutathione Sepharose 4B, thrombin cleavage, Superdex 75 gel filtration)
T2 sequence (looked up): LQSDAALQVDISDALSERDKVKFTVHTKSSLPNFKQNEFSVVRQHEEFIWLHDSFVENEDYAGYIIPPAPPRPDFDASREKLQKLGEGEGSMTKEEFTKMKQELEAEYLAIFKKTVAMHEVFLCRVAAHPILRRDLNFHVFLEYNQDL

B1: NRP1 peptide (residues 894 to 918 of the cytosolic tail) (peptide)
peptide: not shown
notes: Neuropilin-1 cytosolic tail, residues 894 to 918; only stretches of it are printed (898-NYNFELV-904, 905-DG-906, 907-VKLKKD-912); also called synthetic peptide corresponding to these residues in NRP1; source: synthetic peptide
B1 showed a Kd [1] of 19.8 µM and a Kd [2] of 14.3 µM.

Reference: article PMC9231623, “ESCPE-1 mediates retrograde endosomal sorting of the SARS-CoV-2 host factor Neuropilin-1” (Proceedings of the National Academy of Sciences of the …, 2022)
